# T1: DbfS sensory domain, DbfS^SD-6xHis (Vibrio cholerae, UniProt Q9KRK1 43-171)
# T1 sequence: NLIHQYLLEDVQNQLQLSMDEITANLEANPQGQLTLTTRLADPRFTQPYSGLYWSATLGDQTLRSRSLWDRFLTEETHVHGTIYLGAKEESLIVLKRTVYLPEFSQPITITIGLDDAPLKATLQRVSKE
# Target: T1, DbfS sensory domain, DbfS^SD-6xHis
# Test: MST
binder,measurement,value
"DbfQ (processed, 6xHis tag-cleaved) (natural protein, Red-NHS dye, amine-reactive, covalent (in the MST experiments only)) DNKVRDWEQGSYREGTQIEIDEDQDDVYRAVQKGLIRPFAELYATVDQQLNGRLIKVELDEDDDEWIYELKLVYDNQVFRVEYNAATLELMSIRGRNVIRAIKK",Kd,30 nM
